Test results as given in US8173771B2, “Humanin receptor or humanin-like polypeptide receptor” (Keio Univeristy, priority 2005, dated 2012).

Target: T1, G-CSFR/gp130 chimera proteins (Homo sapiens, UniProt P40189+Q99062)
T1 construct: the extracellular domain of the human G-CSF receptor fused to the full transmembrane domain; expressed in transfected cells; host or cells: F11 cells
T1 sequence (Q99062+P40189 with tags, fused parts or gaps): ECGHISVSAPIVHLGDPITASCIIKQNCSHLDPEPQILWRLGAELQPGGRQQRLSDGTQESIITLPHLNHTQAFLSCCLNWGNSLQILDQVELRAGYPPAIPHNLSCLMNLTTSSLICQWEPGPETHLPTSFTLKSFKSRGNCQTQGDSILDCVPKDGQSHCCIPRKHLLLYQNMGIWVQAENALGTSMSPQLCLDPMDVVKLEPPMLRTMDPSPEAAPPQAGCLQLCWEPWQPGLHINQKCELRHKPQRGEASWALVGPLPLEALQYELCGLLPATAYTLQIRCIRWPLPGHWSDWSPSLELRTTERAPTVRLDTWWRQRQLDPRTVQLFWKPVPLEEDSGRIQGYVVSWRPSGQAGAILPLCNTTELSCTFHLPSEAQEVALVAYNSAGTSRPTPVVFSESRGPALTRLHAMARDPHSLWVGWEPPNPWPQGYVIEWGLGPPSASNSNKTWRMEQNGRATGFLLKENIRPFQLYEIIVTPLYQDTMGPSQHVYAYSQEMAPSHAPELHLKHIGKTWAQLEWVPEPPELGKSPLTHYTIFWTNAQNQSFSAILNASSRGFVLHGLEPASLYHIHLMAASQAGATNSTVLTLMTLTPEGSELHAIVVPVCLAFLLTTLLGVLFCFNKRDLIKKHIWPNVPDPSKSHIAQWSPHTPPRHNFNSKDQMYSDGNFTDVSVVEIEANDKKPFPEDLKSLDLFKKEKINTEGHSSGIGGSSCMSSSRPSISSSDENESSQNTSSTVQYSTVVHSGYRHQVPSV
Experiment: G-CSF stimulation of G-CSFR/gp130 chimera proteins in F11 cells, cell mortality by Trypan blue exclusion
Assay type: cell-based
Conditions: 100 nM; G-133 expressed
Experimental: B) F11 cells were transfected with 0.5 μg of the pcDNA3 vector or pcDNA3-APP in association with 0.5 μg of the pEFBos vector or the pEFBos vectors encoding the extracellular domain of the human G-CSF receptor fused to the full transmembrane domain and a C-terminally truncated intracytoplasmic domain of gp130 (named “G-CSFR/gp130”). G-CSFR/gp130 (277) contains the full intracytoplasmic domain of gp130 corresponding to amino acids 1-277, while G-CSFR/gp130 (25), (68), and (133) contain the intracytoplasmic domains corresponding to amino acids 1-25, 1-68, and 1-133, respectively. At 24 hr after transfection, the cells were added with indicated amounts of human G-CSF. Cell mortality was determined by Trypan blue exclusion assay at 72 hr after transfection. The results of immunoblot analysis of the expression of […] are shown in photos.
C) Instead of the pcDNA3-V6421-APP vector, pcDNA3-K595 N/M596L-APP (NL-APP), M146L-PS1 and N141-I-PS2 vectors were used to do the same experiments as in FIG. 2A. The results of immunoblot analysis of the expression of NL-APP, M146L-PS1 and N141-I-PS2 are shown in photos.
D) F11 cells were transfected with 0.5 μg of the pEFBos vector or pEF-G85R-SOD1 in association with 0.5 μg of the pEFBos vector or each pEFBos vector encoding G-CSFR/gp130 (277) or G-CSFR/gp130 (25). At 24 hr after transfection, the cells were added with indicated amounts of human G-CSF. Cell mortality was determined by Trypan blue exclusion assay at 72 hr after transfection. The results of the expression of G85R-SOD1, which were confirmed by the immunoblot analysis, are shown in photos.
Neurohybrid F11 cells and pcDNA3 vectors encoding V642I-APP, K595N/M596L-APP (NL-APP), M146L-PS1, and N141I-PS2 cDNA were prepared as already described (Hashimoto et al, 2000, 2001a, 2003). pCAG-human gp130 and pCAG-human gp130 ED (the extracellular domain of human gp130) were prepared as described (Kumanogoh et al., 1997). pcDNA3 vectors encoding the extracellular domain of the G-CSF receptor fused to the full-length transmembrane domain and various portions of the intracellular domains of human gp130, were prepared as described (Fukada et al, 1996). The intracellular domain of gp130 was C-terminally truncated. A chimera protein named G-277 contained a 277 amino acid-long full intracellular domain of gp130 (SEQ ID NO:35), while G-195, G-133, G-68, and G-25 contained the amino acids 1-195 (SEQ ID NO:36), 1-133 (SEQ ID NO:37), 1-68 (SEQ ID NO:38), and 1-25 (SEQ ID NO:39) intracellular portions, respectively. C-terminally myc-tagged human WSX-1 and myc-tagged mouse CREME9 cDNAs were amplified from human and mouse embryo cDNA (BioChain) by PCR using sets of sense primers and antisense primers: 5′-[…]-3′ (SEQ ID NO:3) and 5′-[…]-3′ (SEQ ID NO:4) for human WSX-1; 5′-[…]-3′ (SEQ ID NO:5); and 5′-[…]-3′ (SEQ ID NO:6) for mouse CREME9. Plasmids encoding C-terminally V5-tagged human CNTF-R (V %-CNTF-R) and rat IL-6R (pUCM18-rat IL-6R) were purchased from Invitrogen and American Culture Collection, respectively. A pEFBos vector comprising familial ALS (FALS) gene G85R-SOD1 was kindly provided by Dr. Shoji Tsuji. Cosmid of human wild […] was constructed by inserting a full-length gp130 into a SwaI site of pAxCAwt (TaKaRa).
The transfection procedures were as described (Hashimoto et al, 2000, 2001a, 2003). F11 cells, seeded at 7×10^4/well in 6-well dishes, were transfected with indicated vectors. Transfection efficiency in these protocols has been determined to be invariably around 70%. At 72 hrs after transfection, the Trypan blue exclusion assay and LDH assay were performed as a cell-death assay and the WST-8 assay was performed as cell-viability assays (Hashimoto et al, 2000, 2001a b, 2003). HN was added to the culture medium usually at 5 hrs after transfection, but in some cases at 24 hrs after transfection.

B1: G-CSF: human G-CSF, ligand stimulating G-CSFR/gp130 chimera proteins (protein, UniProt P09919 31-207, looked up)
Granulocyte …: TPLGPASSLPQSFLLKCLEQVRKIQGDGAALQEKLVSECATYKLCHPEELVLLGHSLGIPWAPLSSCPSQALQLAGCLSQLHSGLFLYQGLLQALEGISPELGPTLDTLQLDVADFATTIWQQMEELGMAPALQPTQGAMPAFASAFQRRAGGVLVASHLQSFLEVSYRVLRHLAQP
  prevention of neuronal cell death induced by V642I-APP: partially prevented
